In patent publication CN115850461A (INST MICROBIOLOGY CAS, dated 2023):

Key:
Experiment in all cases: cell-based or functional assay
[1] = target: SARS-CoV-2 Omicron BA.2 假病毒 S蛋白 (SARS-CoV-2 (Omicron BA.2))
[2] = target: SARS-CoV-2 Beta 假病毒 S蛋白 (SARS-CoV-2 (Beta))
[3] = target: SARS-CoV-2 Omicron BA.1 假病毒 S蛋白 (SARS-CoV-2 (Omicron BA.1))
[4] = target: SARS-CoV-2 Alpha 假病毒 S蛋白 (SARS-CoV-2 (Alpha))
[5] = target: SARS-CoV-2 Omicron BA.2.75 假病毒 S蛋白 (SARS-CoV-2 (Omicron BA.2.75))
[6] = target: SARS-CoV-2 Omicron BA.1.1 假病毒 S蛋白 (SARS-CoV-2 (Omicron BA.1.1))
[7] = target: SARS-CoV-2 Omicron BA.4/5 假病毒 S蛋白 (SARS-CoV-2 (Omicron BA.4/5))
[8] = target: SARS-CoV-2 Delta 假病毒 S蛋白 (SARS-CoV-2 (Delta))

B1: 沙贝病毒广谱人源中和抗体74 (antibody, V domains shown)
VH: QVQLVQSGAQLKKPGESLKISCKGSGYNFSRYWIAWVRHMPGKGLEVMGIIYPDDSDTRYSPSVRGQVTISADKSTSIVYLQWSSLKASDTGIYYCARFGAGMTGMPRYFDTTRWFDPWGQGTQVTVSS
VL: QSVLTQPPSVSGAPGQRVTISCLGGSSNIGAGYDVHWYQHLPGAAPKLLISGNSNRPSGVPARFSGSKSGTSASLAITGLQAEDEADYYCQSYDNDLSQVFGGGTKLTVLG
- IC50, 假病毒中和 [1]: 3.49 µg/mL
- IC50, 假病毒中和 [2]: 1.62 µg/mL
- IC50, 假病毒中和 [3]: 0.91 µg/mL
- IC50, 假病毒中和 [4]: 0.76 µg/mL
- IC50, 假病毒中和 [5]: 1.7 µg/mL
- IC50, 假病毒中和 [6]: 0.2 µg/mL
- IC50, 假病毒中和 [7]: 2.81 µg/mL
- IC50, 假病毒中和 [8]: 1.7 µg/mL
